In patent publication US20050069542A1 (Human Genome Sciences, published 2005):
Where a chain is given by its changes, count along the chain named. Blank lines part the entries; values can stand above or below the binder they belong to.

Biological target: T1, flag-tagged soluble TL3 (amino acids 105-251 of SEQ ID NO:234) (Homo sapiens (Human), UniProt O75888 105-250)
T1 construct: Heterologous flag-tagged control protein, immobilized in the ELISA; also called flagged tagged TL-3; not shown: Flag tag
T1 sequence: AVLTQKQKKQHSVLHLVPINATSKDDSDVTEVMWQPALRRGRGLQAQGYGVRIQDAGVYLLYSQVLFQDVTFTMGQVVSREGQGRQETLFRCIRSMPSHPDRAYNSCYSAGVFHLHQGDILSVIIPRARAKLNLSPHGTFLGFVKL
Assay: phage ELISA on immobilized flag-tagged soluble TL3
Procedure: The individual phage isolates in the panel of phage, each phage expressing a unique scFv that bound to flag-tagged GMAD, were tested to ensure specificity for GMAD using an ELISA assay. The scFvs were tested in an ELISA for their ability to bind a heterologous flag-tagged protein, in this case—immobilized soluble TL3 (amino acids 105-251 of SEQ ID NO:234, GenBank Accesion Number NP_{—}003799, also described in International Patent Application Publication Number WO97/33902 and WO2001/96528 which are herein incorporated by reference in their entireties).

B1: GMBC608 (scFv)
scFv: EVQLVQSGGGLVQPGRSLRLSCAASGFTFSDSYMTWIRQAPGEGLEFVSYISSGSSTTYYTDSVKGRFTISRDNSKNTLYLQMNSLRPEDTAVYYCARRSISSDYYSYYLDVWGKGTLVTVSSGGGGSGGGGSGGGGSSELTQDPAVSVALGQTVRITCQGDSLRSYYASWYQQKPGQAPVLVIYGKNNRPSGIPDRFSGSSSGNTASLTITGAQAEDEADYYCNSRDSSGNHVVFGGGTKLTVLG
binding result: no binding

B2: GMBC687 (scFv)
scFv: QVQLVQSGAEVKKPGSSVKVSCKAPGDTFSNYIFNWVRQAPGQGLEWMGGIIPKFGTVNDAHKFQDRVTIAADESTNTASMELSSLTSEDTAVYYCACEPIPKDYGDVNGLEIWGKGTMVTVSSGGGGSGGGGSGGGGSDIQMTQSPSTLSASIGDRVTITCRASEGIYHWLAWYQQKPGKAPKLLIYKASSLASGAPSRFSGSGSGTDFTLTISSLQPDDFATYYCQQYSNYPLTFGGGTKLEIKR
binding result: no binding

B3: GMBC662 (scFv)
scFv: GVQLVQSGAEVKKPGSSVKVSCKASGGTFSSYTISWVRQAPGQGLEWMGRIIPILGIANYAQKFQGRVTITADKSTSTAYMELSSLRSEDTAVYYCAREKLRDFQHWGQGTLVTVSSGGGGSGGGGSGGGGSQSVLTQPASVSGSPGQSITISCTGTSSDVGGYNYVSWYQQHPGKAPKLMIYEGSKRPSGISNRFSGSKSGNTASLTISRLQAEDEADYYCSSYTTRSTRVFGGGTKLTVLG
binding result: no binding

B4: GMBC652 (scFv)
scFv: GVQLVQSGGVVVKPGGSLRLSCAASGFTFSDAWMNWVRQAPGKGLEWVGRIKSKGSGGTTDYAAPVKGRFTISRDDSENTLYLQMNSLKTEDTAVYYCTWDHSYYYDMAVWGRGTMVTASSGGGGSGGGGSGGGGSQSVLTQPASVSGSPGQSITISCTGTSSDVGGYNYVSWYQQHPGKAPKFMIYDVSKRPSGVSNRFSGSKSGNTASLTISGVQAEDEADYYCSSYTSASTVIFGGGTKLTVLG
binding result: no binding

B5: GMBC642 (scFv)
scFv: QVQLQQSGAEVKKPGASVKVSCKASGYTFTIHYMHWVRQAPGQGLEWMGIINPGDGSTSYAQNFQGRVTMTRDTSTSTVYMELSSLRSEDTAVYYCARAGRTVTSHFDYWGRGTLATVSSGGGGSGGGGSGGGGSSELTQDPAVSVALGQTVRITCQGDSLRSYYASWYQQKPGQAPVLVIYGKNNRPSGIPDRFSGSSSGNTASLTITGAQAEDEADYYCNSRDSSGNHVVFGGGTKLTVLG
binding result: no binding

B6: GMBC606 (scFv)
scFv: EVQLVQSGGGVVQPGGSLRLSCAASGFTFSSYGMHWVRQAPGKGLEWVAFIRYDGSNKYYADSVKGRFTISRDNSKNTLYLQMNSLRAEDTAVYYCAKSSSFANAFDIWGQGTTVTVSSGGGGSGGGGSGGGGSSELTQDPAVSVALGQTVRITCQGDSLRSYYASWYQQKPGQAPVLVIYGKNNRPSGIPDRFSGSSSGNTASLTITGAQAEDEADYYCNSRDSSGNHVVFGGGTKLTVLG
binding result: no binding

B7: GMBC725 (scFv)
scFv: B6 scFv with S7T, R52L, F102S, N104S, G110R, G112R
binding result: no binding

B8: GMBC668 (scFv)
scFv: EVQLVESGGGLVKPGGSLRLSCAASGFTFSDAWMNWVRQAPGKGLEWVGRIKSKGSGGTTDYAAPVKGRFTISRDDSENTLYLQMNSLKTEDTAVYYCTWDHSYYYDMAVWGRGTLVTVSSGGGGSGGGGSGGGGSSELTQDPAVSVALGQTVRITCQGDSLRSYYASWYQQKPGQAPVLVIYGKNNRPSGIPDRFSGSSSGNTASLTITGAQAEDEADYYCNSRDSSGNHVVFGGGTKLTVLG
binding result: no binding

B9: GMBC682 (scFv)
scFv: QVQLVESGGGVVKPGGSLRLSCAASGFKFSDAWMNWVRQAPGKGLEWVGRIKSKGSGGTIDYAAPVKDRFTISRDDSKNTLYLQMNSLKTEDTALYYCTWDWDFYYGMNVWGRGTLVTVSSGGGGSGGGGSGGGGSSELTQDPAVSVALGQTVRITCQGDSLRSYYASWYQQKPGQAPVLVIYGKNNRPSGIPDRFSGSSSGNTASLTITGAQAEDEADYYCNSRDSSGNHVVFGGGTKLTVLG
binding result: no binding

B10: GMBC669 (scFv)
scFv: QVQLVESGGALVKPGGSLRLSCAASGFTFSDAWMNWVRQAPGKGLEWVGRIKSKGSGGTIDYAAPVKDRFTISRDDSKNTLYLQMNSLKTEDTALYYCTWDWDFYYGMNVWGQGTLVTVSSGGGGSGGGGSGGGGSQSVLTQPPSASGSPGQSVTISCTGTSSDVGGYNYVSWYQQHPGKAPKFMIYDVSKRPSGVSNRFSGSKSGNTASLTISGVQAEDEADYYCSSYTSASTVIFGGGTKLTVLG
binding result: no binding

B11: GMBC678 (scFv)
scFv: B10 scFv with Q1E, A10G
binding result: no binding

B12: GMBC681 (scFv)
scFv: QVQLVQSGGGVVQPGGSLRLSCAASGFTFSSYGMHWVRQAPGKGLEWVAFIRYDGSNKYYADSVKGRFTISRDNSKNTLYLQMNSLRAEDTAVYYCAKGGTGYFDLWGRGTLVTVSSGGGGSGGGGSGGGGSDIQMTQSPSTLSASIGDRVTITCRASEGIYHWLAWYQQKPGKAPKLLIYKASSLASGAPSRFSGSGSGTDFTLTISSLQPDDFATYYCQQYSNYPLTFGGGTKLEIKR
binding result: no binding

B13: GMBC683 (scFv)
scFv: EVQLVESGGGLVQPGRSLRLSCAASGFTFSSYGMHWVRQAPGKGLEWVAVISYDGSNKYYADSVKGRFTISRDNSKNTLYLQMNSLRAEDTAVYYCAKRAAAGTLDYWGQGTTVTVSSGGGGSGGGGSGGGGSSELTQDPAVSVALGQTVRITCQGDSLRSYYASWYQQKPGQAPVLVIYGKNNRPSGIPDRFSGSSSGNTASLTITGAQAEDEADYYCNSRDSSGNHVVFGGGTKLTVLG
binding result: no binding

B14: GMBC609 (scFv)
scFv: QVQLVESGGGLVKPGESLRLSCEASGFEFNYAWMSWVRQAPGKGLEWVGRSRSEASGGTTDYAAPLQDRFTISRDDSKNTLYLQVNSLKIEDTGVYFCKWEKSEYYGMDVWGRGTPVTVSSGGGGSGGGGSGGGGSQSVLTQPPSVSAAPGQKVTISCSGSTSNIGNNYVSWYQQHPGKAPKLMIYDVSKRPSGVPDRFSGSKSGNSASLDISGLQSEDEADYYCAAWDDSLSEFLFGTGTKLTVLG
binding result: no binding

Continued, values first:

binding result: no binding
B15: GMBC666 (scFv)
scFv: B14 scFv with Q1E, V12A, R113K, P116M

binding result: no binding
B16: GMBC655 (scFv)
scFv: EVQLVESGGGLVKPGGSLRLSCAASGFTFSSYGMSWIRQAPGKGQEWVSAISGSGGSAYYADSVKGRFTISRDNSKNTLYLQMNSLRAEDTAVYYCAKAYSSEDYWGRGTMVTVSSGGGGSGGGGSGGGGSNIQMTQSPSFLSASVGDRVTITCRASQGINNYLAWYQQKPGRAPKLLIYAASSLQSGVPSRFSGSGSGTDFTLTISSLQPDDFATYYCQQYSNYPLTFGGGTKLEIKR

binding result: no binding
B17: GMBC639 (scFv)
scFv: GVQLVQSGAEVKTPGASVKVSCKASGYTFTNHYMHWVRQAPGQGIEWVGVINPSGDGSSYAQTFQGRVTMTRDTSTSTVYMELRSLRSDDTAVYYCARDLFYDFWSDYYRNDQYYYMDVWGKGTLVTVSSGGGGSGGGGSGGGGSSELTQDPAVSVALGQAVRITCQGDSLRSYYASWYQQKPGQAPVLVIYGKNNRPSGIPDRFSGSSSGNTASLTITGAQAEDEADYYCNSRDSSGNHVVFGGGTKLTVLG

binding result: no binding
B18: GMBC673 (scFv)
scFv: EVQLVESGGGLVQTGGSLRLSCAASGFPIGSHWMSWVRQSPGKGLEWVASIKQDGREKHFVDSVKGRFGISRDNAKDSLYLQMNSLRIEDTAVYYCARETYGGYYYYFMDVWGRGTLVTVSSGGGGSGGGGSGGGGSSELTQDPAVSVALGQTVRITCQGDSLRSYYASWYQQKPGQAPVLVIYGKNNRPSGIPDRFSGSSSGNTASLTITGAQAEDEADYYCQTWGPGIRVFGGGTKLTVLG

binding result: no binding
B19: GMBC641 (scFv)
scFv: EVQLVESGGGVVRPGRSLRLSCAASGFSFSSYGMHWVRQAPGKGLEWVSAISGSGGSTYYADSVKGRFTISRDNSKNTLYLQMNSLRAEDTAVYFCAKGGDRSFRAFDFWGQGTMVTVSSGGGGSGGGGSGGGGSSELTQDPAVSVALGQTVRITCQGDSLRSYYASWYQQKPGQAPVLVIYGKNNRPSGIPDRFSGSSSGNTASLTITGAQAEDEADYYCNSRDSSGNHVVFGGGTKLTVLG

binding result: no binding
B20: GMBC646 (scFv)
scFv: GVQLVQSGAEVKKPGASVKVSCKASGYTFTSYYIHWVRQAPGQGLEWMGIINPSGGTTSYAQKFQGRVTMTRDTSTSTVYMELSSLRSEDTAMYYCARERFLRGMDVWGRGTMVTVSSGGGGSGGGGSGGGGSDIVMTQSPSTLSASVGDRVTITCRASQGISSWLAWYQQKPGRAPKVLIYKASTLESGVPSRFSGSGSGTDFTLTISSLQPEDFATYYCQQSYSTPWTFGQGTKLEIKR
